Laboratory results published in patent publication US20230181756A1 (Novartis, published 2023).

Columns and labels:
[1] = target: T1, recombinant hCCR7 (Origene #TP306614) (human, UniProt P32248 25-378, limits assumed); assay: ELISA, recombinant CCR7 coated at 3.5 ug/ml, antibody titrated
T1 construct: Bought protein coated on ELISA plates; also called recombinant CCR7
T1 sequence (looked up): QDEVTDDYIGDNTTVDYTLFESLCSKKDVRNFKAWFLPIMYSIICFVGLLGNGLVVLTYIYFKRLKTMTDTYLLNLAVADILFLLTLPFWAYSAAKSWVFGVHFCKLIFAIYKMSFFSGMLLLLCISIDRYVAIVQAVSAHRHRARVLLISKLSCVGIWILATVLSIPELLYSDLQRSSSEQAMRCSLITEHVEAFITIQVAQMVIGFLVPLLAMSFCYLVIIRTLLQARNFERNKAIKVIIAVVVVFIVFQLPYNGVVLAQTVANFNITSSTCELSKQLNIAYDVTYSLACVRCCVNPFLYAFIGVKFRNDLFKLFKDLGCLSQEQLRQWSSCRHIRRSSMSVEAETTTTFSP

human CCR7 [2] = target: T2, human CCR7 (human, UniProt P32248 25-378); assay: FACS titration, DEL cancer cells (receptor density ~100,000)
T2 construct: The assay field tells which; also called hCCR7; NIH3T3.hCCR7
T2 sequence: T1 sequence (looked up)

human CCR7 [3] = target: T2, human CCR7; assay: FACS titration, NIH3T3.hCCR7 cells (receptor density >1,000,000)
[4] = target: T1, recombinant hCCR7 (Origene #TP306614); assay: ELISA on plate-coated recombinant hCCR7, antibody titrated, anti-hFc-HRP detection, OD 650 nm
human CCR7 [5] = target: T2, human CCR7; assay: cell-based or functional assay
human CCR7 [6] = target: T2, human CCR7; assay: FACS titration, human CD4+ T cells (receptor density <2,000)
human CCR7 [7] = target: T2, human CCR7; assay: FACS binding on CCR7 expressing cells, against the unconjugated antibody
human CCR7 [8] = target: T2, human CCR7; assay: cell-based or functional assay; remark: listed apart in the source
human CCR7 [9] = target: T2, human CCR7; assay: FACS titration, DEL cells (CCR7 receptor levels >=100,000)

B1: Humanized 121G12.CysMab.DAPA (antibody, human IgG1, kappa)
heavy: EVQLVESGGGLVKPGGSLRLSCAASGFTFSTYAMSWVRQAPGKGLEWVATISDAGSYSYYPDNVKGRFTISRDNAKNSLYLQMNSLRAEDTAVYYCARRGSRYEEYYVMDYWGQGTTVTVSSASTKGPSVFPLAPSSKSTSGGTAALGCLVKDYFPCPVTVSWNSGALTSGVHTFPAVLQSSGLYSLSSVVTVPSSSLGTQTYICNVNHKPSNTKVDKRVEPKSCDKTHTCPPCPAPELLGGPSVFLFPPKPKDTLMISRTPEVTCVVVAVSHEDPEVKFNWYVDGVEVHNAKTKPREEQYNSTYRVVSVLTVLHQDWLNGKEYKCKVSNKALAAPIEKTISKAKGQPREPQVYTLPPSREEMTKNQVSLTCLVKGFYPCDIAVEWESNGQPENNYKTTPPVLDSDGSFFLYSKLTVDKSRWQQGNVFSCSVMHEALHNHYTQKSLSLSPGK
light: EIVLTQSPATLSVSPGERVTLSCRASQSISNNLHWYQQKPGQAPRLLIKYASQSISGIPARFSGSGSGTDFTLTISSVEPEDFGVYFCQQSSSWLTFGQGTKLEIKRTVAAPSVFIFPPSDEQLKSGTASVVCLLNNFYPREAKVQWKVDNALQSGNSQESVTEQDSKDSTYSLSSTLTLSKADYEKHKVYACEVTHQGLSSPVTKSFNRGEC
notes: Human IgG1 kappa with D265A/P329A and CysMab cysteines; also called 121G12 (Humanized CysMab, DAPA)
[1]
  Kd: 0.677 nM
Human CCR7 [2]
  EC50: 1.78 nM
Human CCR7 [3]
  EC50: 2.5 nM
[4]
  EC50 (read off the curve): ~0.6 nM
Human CCR7 [5]
  pHrodo (6 h MFI), internalization, CD4+ T cells (receptor numbers 2000): 278 MFI
  pHrodo (6 h MFI), internalization, CMLT1 cells (receptor numbers 19583): 301 MFI
  pHrodo (6 h MFI), internalization, DEL cells (receptor numbers 110685): 1910 MFI
  pHrodo (6 h MFI), internalization, JVM3 cells (receptor numbers 8717): 148 MFI
  pHrodo (6 h MFI), internalization, Jeko-1 cells (receptor numbers 28852): 450 MFI
  pHrodo (6 h MFI), internalization, KE97 cells (receptor numbers 152093): 1570 MFI
  pHrodo (6 h MFI), internalization, L540 cells (receptor numbers 167549): 6840 MFI
  pHrodo (6 h MFI), internalization, L1236 cells (receptor numbers 61602): 1240 MFI
  pHrodo (6 h MFI), internalization, MJ cells (receptor numbers 111121): 1650 MFI
  pHrodo (6 h MFI), internalization, MOTN1 cells (receptor numbers 84200): 1030 MFI
  pHrodo (6 h MFI), internalization, Mec2 cells (receptor numbers 50840): 1340 MFI
Human CCR7 [6]
  EC50: ~30 nM

B2: 121G12.DAPA.sSPDB.DM4 (antibody, human IgG1, kappa)
heavy: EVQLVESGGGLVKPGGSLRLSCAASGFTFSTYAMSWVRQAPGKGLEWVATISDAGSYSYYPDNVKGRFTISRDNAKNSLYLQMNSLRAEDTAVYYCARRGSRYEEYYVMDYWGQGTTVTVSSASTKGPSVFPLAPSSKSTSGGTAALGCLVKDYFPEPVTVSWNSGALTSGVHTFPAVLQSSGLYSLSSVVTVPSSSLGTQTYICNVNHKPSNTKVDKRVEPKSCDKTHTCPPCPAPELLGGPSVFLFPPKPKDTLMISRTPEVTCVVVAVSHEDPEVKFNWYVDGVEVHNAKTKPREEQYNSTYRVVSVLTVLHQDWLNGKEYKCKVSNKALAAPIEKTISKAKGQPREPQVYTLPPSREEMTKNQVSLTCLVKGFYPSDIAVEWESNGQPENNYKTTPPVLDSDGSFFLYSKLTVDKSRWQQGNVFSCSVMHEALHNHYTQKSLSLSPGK
light: B1 light
modifications: sulfo-SPDB-DM4 on endogenous lysines (sites not defined, may also be on the light chain); DAR 3.6 in Example 4B, DAR 3.9 in Tables 20 and 21
notes: also called 121G12.sSPDB.DM4
Human CCR7 [7]
  difference of geometric mean fluorescence intensity from the unconjugated antibody: ≤ 20%
Human CCR7 [8]
  ADC activity in cell viability assay; IC50 (nM); DEL cells: 2.98 nM
  ADC activity in cell viability assay; IC50 (nM); KE97 cells: 3.18 nM
  ADC activity in cell viability assay; IC50 (nM); L540 cells: 3.9 nM
Human CCR7 [9]
  EC50: 8.42 nM
